The values below come from US20230135471A1, “UBIQUITIN VARIANTS WITH IMPROVED AFFINITY FOR 53BP1” (Integrated DNA Technologies, Inc., priority 2021, published 2023).

The target in the test is 53BP1 fragment (a.a. 1221-1718) fused to an adenylate cyclase fragment (two-hybrid) (UniProt Q12888). Briefly: cell-based or functional assay.
Turning to “i53 + R54F two-hybrid fusion (designed binder)”, the Experiment 1 Average Enrichment was determined as 0.76 log2, the Experiment 1 Rep 1 Enrichment worked out at 1.01 log2, the Experiment 1 Rep 2 Enrichment worked out at 0.52 log2 and the Experiment 2 Average Enrichment is 0.55 log2. Also, the Experiment 2 Rep 1 Enrichment came to 0.66 log2 and the Experiment 2 Rep 2 Enrichment was determined as 0.43 log2.

For the substance “i53 + N25S two-hybrid fusion (designed binder)”, the Experiment 1 Average Enrichment was determined as 0.26 log2, the Experiment 1 Rep 1 Enrichment was determined as 0.18 log2, the Experiment 1 Rep 2 Enrichment was 0.34 log2 and the Experiment 2 Average Enrichment is 0.33 log2. Also, the Experiment 2 Rep 1 Enrichment is 0.27 log2 and the Experiment 2 Rep 2 Enrichment was found to be 0.38 log2.

On to “i53 + E18H two-hybrid fusion (designed binder)”, for which the Experiment 1 Average Enrichment is 1.17 log2, the Experiment 1 Rep 1 Enrichment came out at 0.39 log2, the Experiment 1 Rep 2 Enrichment stood at 1.96 log2 and the Experiment 2 Average Enrichment stood at 0.07 log2. The Experiment 2 Rep 1 Enrichment was determined as 0.24 log2 and the Experiment 2 Rep 2 Enrichment was -0.11 log2.

For “i53 + R54H two-hybrid fusion (designed binder)”, the Experiment 1 Average Enrichment is 0.87 log2, the Experiment 1 Rep 1 Enrichment was 0.78 log2, the Experiment 1 Rep 2 Enrichment was determined as 0.96 log2 and the Experiment 2 Average Enrichment stood at 0.49 log2. The substance also yielded an Experiment 2 Rep 1 Enrichment of 0.43 log2 and an Experiment 2 Rep 2 Enrichment of 0.55 log2.

In turn, “i53 + L67M two-hybrid fusion (designed binder)” registered an Experiment 1 Average Enrichment of 1.03 log2, an Experiment 1 Rep 1 Enrichment of 0.98 log2, an Experiment 1 Rep 2 Enrichment of 1.07 log2 and an Experiment 2 Average Enrichment of 0.77 log2. Further, the Experiment 2 Rep 1 Enrichment is 0.65 log2 and the Experiment 2 Rep 2 Enrichment was 0.88 log2.

With “i53 + I13H two-hybrid fusion (designed binder)”, the Experiment 1 Average Enrichment came out at 0.5 log2, the Experiment 1 Rep 1 Enrichment is -0.27 log2, the Experiment 1 Rep 2 Enrichment worked out at 1.28 log2 and the Experiment 2 Average Enrichment is -1.6 log2. This substance showed an Experiment 2 Rep 1 Enrichment of -2.48 log2 and an Experiment 2 Rep 2 Enrichment of -0.71 log2.

Substance “i53 + S49P two-hybrid fusion (designed binder)” gave an Experiment 1 Average Enrichment of 0.78 log2, an Experiment 1 Rep 1 Enrichment of 0.65 log2, an Experiment 1 Rep 2 Enrichment of 0.91 log2 and an Experiment 2 Average Enrichment of 0.58 log2. Also, the Experiment 2 Rep 1 Enrichment was 0.71 log2 and the Experiment 2 Rep 2 Enrichment is 0.44 log2.

“i53 + N25A two-hybrid fusion (designed binder)” displayed an Experiment 1 Average Enrichment of 0.3 log2, an Experiment 1 Rep 1 Enrichment of 0.12 log2, an Experiment 1 Rep 2 Enrichment of 0.49 log2 and an Experiment 2 Average Enrichment of 0.4 log2. This substance displayed an Experiment 2 Rep 1 Enrichment of 0.39 log2 and an Experiment 2 Rep 2 Enrichment of 0.4 log2.

For “i53 + Q41C two-hybrid fusion (designed binder)”, the Experiment 1 Average Enrichment was 0.18 log2, the Experiment 1 Rep 1 Enrichment was 0.22 log2, the Experiment 1 Rep 2 Enrichment is 0.13 log2 and the Experiment 2 Average Enrichment is -0.03 log2. For the same substance, the Experiment 2 Rep 1 Enrichment was -0.05 log2 and the Experiment 2 Rep 2 Enrichment is 0 log2.

“i53 + L73M two-hybrid fusion (designed binder)” came in with an Experiment 1 Average Enrichment of 2.61 log2, an Experiment 1 Rep 1 Enrichment of 2.69 log2, an Experiment 1 Rep 2 Enrichment of 2.52 log2 and an Experiment 2 Average Enrichment of 1.43 log2. Also, the Experiment 2 Rep 1 Enrichment stood at 1.58 log2, the Experiment 2 Rep 2 Enrichment was determined as 1.28 log2, the Percent GFP Positive Rep 1 was 36.2% and the Percent GFP Positive Rep 2 came to 29.2%. Also, the Percent GFP Positive Rep 3 came out at 39.5%.

For the substance “i53 + S49A two-hybrid fusion (designed binder)”, the Experiment 1 Average Enrichment is 0.5 log2, the Experiment 1 Rep 1 Enrichment came out at 0.62 log2, the Experiment 1 Rep 2 Enrichment was determined as 0.39 log2 and the Experiment 2 Average Enrichment turned out to be 0.41 log2. In addition, the Experiment 2 Rep 1 Enrichment was 0.76 log2 and the Experiment 2 Rep 2 Enrichment worked out at 0.06 log2.

For “i53 + L67Y two-hybrid fusion (designed binder)”, the Experiment 1 Average Enrichment stood at 0.14 log2, the Experiment 1 Rep 1 Enrichment is -0.58 log2, the Experiment 1 Rep 2 Enrichment came out at 0.86 log2 and the Experiment 2 Average Enrichment is 0.58 log2. The substance further yielded an Experiment 2 Rep 1 Enrichment of 0.5 log2 and an Experiment 2 Rep 2 Enrichment of 0.65 log2.

“i53 + T9V two-hybrid fusion (designed binder)” registered an Experiment 1 Average Enrichment of 0.06 log2, an Experiment 1 Rep 1 Enrichment of 0.32 log2, an Experiment 1 Rep 2 Enrichment of -0.21 log2 and an Experiment 2 Average Enrichment of -0.15 log2. Besides, the Experiment 2 Rep 1 Enrichment is -0.36 log2 and the Experiment 2 Rep 2 Enrichment stood at 0.06 log2.

Substance “i53 + E18W two-hybrid fusion (designed binder)” returned an Experiment 1 Average Enrichment of 0.18 log2, an Experiment 1 Rep 1 Enrichment of 0.06 log2, an Experiment 1 Rep 2 Enrichment of 0.31 log2 and an Experiment 2 Average Enrichment of 0.75 log2. Also, the Experiment 2 Rep 1 Enrichment was 0.8 log2 and the Experiment 2 Rep 2 Enrichment worked out at 0.69 log2.

“i53 + S57N two-hybrid fusion (designed binder)” had an Experiment 1 Average Enrichment of 1.34 log2, an Experiment 1 Rep 1 Enrichment of 1.72 log2, an Experiment 1 Rep 2 Enrichment of 0.96 log2 and an Experiment 2 Average Enrichment of 0.69 log2. The substance also displayed an Experiment 2 Rep 1 Enrichment of 0.82 log2 and an Experiment 2 Rep 2 Enrichment of 0.56 log2.

For the substance “i53 + E18Y two-hybrid fusion (designed binder)”, the Experiment 1 Average Enrichment worked out at 0.72 log2, the Experiment 1 Rep 1 Enrichment stood at 1.28 log2, the Experiment 1 Rep 2 Enrichment came to 0.17 log2 and the Experiment 2 Average Enrichment was determined as 0.82 log2. The substance also gave an Experiment 2 Rep 1 Enrichment of 1.2 log2 and an Experiment 2 Rep 2 Enrichment of 0.44 log2.

As to “i53 + P38I two-hybrid fusion (designed binder)”, the Experiment 1 Average Enrichment stood at 0.66 log2, the Experiment 1 Rep 1 Enrichment amounted to 0.4 log2, the Experiment 1 Rep 2 Enrichment is 0.92 log2 and the Experiment 2 Average Enrichment was found to be 0.64 log2. The substance further had an Experiment 2 Rep 1 Enrichment of 1.62 log2 and an Experiment 2 Rep 2 Enrichment of -0.34 log2.

For “i53 + E34T two-hybrid fusion (designed binder)”, the Experiment 1 Average Enrichment was 0.12 log2, the Experiment 1 Rep 1 Enrichment was found to be 2.15 log2, the Experiment 1 Rep 2 Enrichment was -1.91 log2 and the Experiment 2 Average Enrichment is -3.54 log2. The same substance had an Experiment 2 Rep 1 Enrichment of -3.26 log2 and an Experiment 2 Rep 2 Enrichment of -3.83 log2.

For the substance “i53 + P38Y two-hybrid fusion (designed binder)”, the Experiment 1 Average Enrichment was determined as 0.74 log2, the Experiment 1 Rep 1 Enrichment came out at 1.79 log2, the Experiment 1 Rep 2 Enrichment is -0.3 log2 and the Experiment 2 Average Enrichment was 0.31 log2. The substance further registered an Experiment 2 Rep 1 Enrichment of 0.66 log2 and an Experiment 2 Rep 2 Enrichment of -0.03 log2.

For “i53 + V17C two-hybrid fusion (designed binder)”, the Experiment 1 Average Enrichment was -1.08 log2, the Experiment 1 Rep 1 Enrichment is -2.27 log2, the Experiment 1 Rep 2 Enrichment is 0.12 log2 and the Experiment 2 Average Enrichment came to 0.19 log2. The substance further returned an Experiment 2 Rep 1 Enrichment of 0.6 log2 and an Experiment 2 Rep 2 Enrichment of -0.23 log2.

“i53 + M1Q two-hybrid fusion (designed binder)” registered an Experiment 1 Average Enrichment of 1.31 log2, an Experiment 1 Rep 1 Enrichment of 1.23 log2, an Experiment 1 Rep 2 Enrichment of 1.38 log2 and an Experiment 2 Average Enrichment of 0.68 log2. In addition, the Experiment 2 Rep 1 Enrichment is 0.58 log2 and the Experiment 2 Rep 2 Enrichment was found to be 0.79 log2.

As for “i53 + M1Y two-hybrid fusion (designed binder)”, the Experiment 1 Average Enrichment came out at 2.36 log2, the Experiment 1 Rep 1 Enrichment amounted to 2.56 log2, the Experiment 1 Rep 2 Enrichment was found to be 2.16 log2 and the Experiment 2 Average Enrichment was 1 log2. Further, the Experiment 2 Rep 1 Enrichment stood at 1.18 log2 and the Experiment 2 Rep 2 Enrichment was found to be 0.81 log2.

Consider “i53 + Q31Y two-hybrid fusion (designed binder)”, for which the Experiment 1 Average Enrichment is 0.32 log2, the Experiment 1 Rep 1 Enrichment stood at 0.31 log2, the Experiment 1 Rep 2 Enrichment is 0.34 log2 and the Experiment 2 Average Enrichment is -0.05 log2. The same substance came in with an Experiment 2 Rep 1 Enrichment of -0.26 log2 and an Experiment 2 Rep 2 Enrichment of 0.16 log2.

“i53 + R54M two-hybrid fusion (designed binder)” had an Experiment 1 Average Enrichment of 0.85 log2, an Experiment 1 Rep 1 Enrichment of 0.82 log2, an Experiment 1 Rep 2 Enrichment of 0.89 log2 and an Experiment 2 Average Enrichment of 0.56 log2. The Experiment 2 Rep 1 Enrichment worked out at 0.56 log2 and the Experiment 2 Rep 2 Enrichment is 0.55 log2.

Consider “i53 + D39W two-hybrid fusion (designed binder)”, for which the Experiment 1 Average Enrichment turned out to be 0.99 log2, the Experiment 1 Rep 1 Enrichment stood at 0.9 log2, the Experiment 1 Rep 2 Enrichment is 1.09 log2 and the Experiment 2 Average Enrichment is 0 log2. The Experiment 2 Rep 1 Enrichment came out at 0.86 log2 and the Experiment 2 Rep 2 Enrichment was -0.85 log2.

For “i53 + R74K two-hybrid fusion (designed binder)”, the Experiment 1 Average Enrichment stood at 0.12 log2, the Experiment 1 Rep 1 Enrichment was 0.04 log2, the Experiment 1 Rep 2 Enrichment came to 0.21 log2 and the Experiment 2 Average Enrichment is 0.13 log2. This substance also displayed an Experiment 2 Rep 1 Enrichment of 0.1 log2 and an Experiment 2 Rep 2 Enrichment of 0.17 log2.

Turning to “i53 + N25M two-hybrid fusion (designed binder)”, the Experiment 1 Average Enrichment is 0.5 log2, the Experiment 1 Rep 1 Enrichment worked out at 0.5 log2, the Experiment 1 Rep 2 Enrichment was 0.5 log2 and the Experiment 2 Average Enrichment was 0.45 log2. This substance also returned an Experiment 2 Rep 1 Enrichment of 0.46 log2 and an Experiment 2 Rep 2 Enrichment of 0.43 log2.

Take “i53 + E18L two-hybrid fusion (designed binder)”: the Experiment 1 Average Enrichment came to 0.75 log2, the Experiment 1 Rep 1 Enrichment came out at 0.75 log2, the Experiment 1 Rep 2 Enrichment amounted to 0.76 log2 and the Experiment 2 Average Enrichment was found to be 0.66 log2. The Experiment 2 Rep 1 Enrichment came to 0.62 log2 and the Experiment 2 Rep 2 Enrichment worked out at 0.71 log2.
